In publication PMC3596245:
Like-named read-outs stand apart in the source and are kept apart here.

Experiments:
[1] = biological target: NMMIIA rod filaments (residues 1338-1960) (human) (UniProt P35579); test: co-sedimentation
[2] = biological target: NMMIIA rod filaments (residues 1338-1960) (human) (UniProt P35579); test: co-sedimentation; remark: listed apart in the source

Substance: GST-gelsolin C-terminal half (G4-G6) (domain or fragment)
- Kd [1]: 212 nM
- Kd [2]: 1310 nM

Substance: GST-gelsolin N-terminal half (G1-G3) (domain or fragment)
- Kd [1]: 220 nM
- Kd [2]: 495 nM

Substance: GST-gelsolin full-length (G1-G6) (from UniProt P06396 28-782) (natural protein)
- Kd [1]: 158 nM
- Kd [2]: 423 nM
